Measured values: the supplement of paper PMC10065799, “High-throughput profiling of sequence recognition by tyrosine kinases and SH2 domains using bacterial peptide display” (eLife, 2023)

How the values were obtained:
AncSZ = experiment: phosphorylation enrichment, bacterial display (enrichment ratio); higher = better substrate or ligand; peptides without Tyr show the background
EPHB1 = EPHB1 (UniProt P54762); experiment: as above
EPHB2 = EPHB2 (UniProt P29323); experiment: as above
FGFR1 = FGFR1 (UniProt P11362); experiment: as above
FGFR3 = FGFR3 (UniProt P22607); experiment: as above
Chain of FGFR3 (P22607 whole entry, looked up): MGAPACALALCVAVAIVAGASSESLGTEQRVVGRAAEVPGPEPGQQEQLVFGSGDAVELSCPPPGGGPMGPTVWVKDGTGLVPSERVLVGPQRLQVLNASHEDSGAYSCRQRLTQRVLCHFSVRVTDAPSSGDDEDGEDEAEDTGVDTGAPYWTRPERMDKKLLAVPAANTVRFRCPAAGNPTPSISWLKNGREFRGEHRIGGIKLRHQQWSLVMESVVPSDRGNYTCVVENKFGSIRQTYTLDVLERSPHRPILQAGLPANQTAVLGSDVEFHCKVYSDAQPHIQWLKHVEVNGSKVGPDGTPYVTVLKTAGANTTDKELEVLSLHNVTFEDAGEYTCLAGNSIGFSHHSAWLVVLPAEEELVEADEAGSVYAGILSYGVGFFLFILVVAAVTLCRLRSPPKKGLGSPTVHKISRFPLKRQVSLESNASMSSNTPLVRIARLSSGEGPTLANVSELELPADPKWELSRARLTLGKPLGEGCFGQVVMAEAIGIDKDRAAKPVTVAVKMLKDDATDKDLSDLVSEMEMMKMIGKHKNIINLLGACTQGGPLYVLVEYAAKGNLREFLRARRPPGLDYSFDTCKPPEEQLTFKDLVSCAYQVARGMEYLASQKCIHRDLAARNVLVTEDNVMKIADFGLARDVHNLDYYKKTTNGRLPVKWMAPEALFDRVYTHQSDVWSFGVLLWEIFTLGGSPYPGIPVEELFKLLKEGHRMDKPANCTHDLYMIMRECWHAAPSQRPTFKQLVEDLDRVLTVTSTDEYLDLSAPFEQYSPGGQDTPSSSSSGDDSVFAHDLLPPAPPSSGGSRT

Fer (mouse) = experiment: as above
Fes = Fes (UniProt P07332); experiment: as above
Chain of Fes (P07332 whole entry, looked up): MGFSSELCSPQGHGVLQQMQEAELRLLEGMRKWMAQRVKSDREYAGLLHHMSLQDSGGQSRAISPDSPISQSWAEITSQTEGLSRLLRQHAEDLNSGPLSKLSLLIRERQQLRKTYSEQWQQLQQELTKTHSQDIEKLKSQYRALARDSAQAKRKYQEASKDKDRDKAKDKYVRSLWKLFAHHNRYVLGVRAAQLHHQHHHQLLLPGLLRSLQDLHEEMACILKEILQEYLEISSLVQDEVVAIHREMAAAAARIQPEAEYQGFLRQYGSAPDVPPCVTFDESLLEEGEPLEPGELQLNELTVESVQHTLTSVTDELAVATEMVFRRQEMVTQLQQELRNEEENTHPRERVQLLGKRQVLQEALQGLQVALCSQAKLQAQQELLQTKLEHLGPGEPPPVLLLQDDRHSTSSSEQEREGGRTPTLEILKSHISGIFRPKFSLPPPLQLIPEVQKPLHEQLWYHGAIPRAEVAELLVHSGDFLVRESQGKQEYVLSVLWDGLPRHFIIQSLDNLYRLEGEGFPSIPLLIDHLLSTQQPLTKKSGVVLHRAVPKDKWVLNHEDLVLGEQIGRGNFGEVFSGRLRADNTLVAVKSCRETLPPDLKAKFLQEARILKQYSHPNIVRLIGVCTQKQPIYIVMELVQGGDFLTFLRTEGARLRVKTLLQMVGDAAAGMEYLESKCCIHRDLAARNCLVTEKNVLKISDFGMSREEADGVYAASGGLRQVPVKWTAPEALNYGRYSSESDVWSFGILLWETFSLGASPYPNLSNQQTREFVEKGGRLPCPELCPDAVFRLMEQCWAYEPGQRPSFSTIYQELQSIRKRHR

Fyn = Fyn (UniProt P06241); experiment: as above
Chain of Fyn (P06241 whole entry, looked up): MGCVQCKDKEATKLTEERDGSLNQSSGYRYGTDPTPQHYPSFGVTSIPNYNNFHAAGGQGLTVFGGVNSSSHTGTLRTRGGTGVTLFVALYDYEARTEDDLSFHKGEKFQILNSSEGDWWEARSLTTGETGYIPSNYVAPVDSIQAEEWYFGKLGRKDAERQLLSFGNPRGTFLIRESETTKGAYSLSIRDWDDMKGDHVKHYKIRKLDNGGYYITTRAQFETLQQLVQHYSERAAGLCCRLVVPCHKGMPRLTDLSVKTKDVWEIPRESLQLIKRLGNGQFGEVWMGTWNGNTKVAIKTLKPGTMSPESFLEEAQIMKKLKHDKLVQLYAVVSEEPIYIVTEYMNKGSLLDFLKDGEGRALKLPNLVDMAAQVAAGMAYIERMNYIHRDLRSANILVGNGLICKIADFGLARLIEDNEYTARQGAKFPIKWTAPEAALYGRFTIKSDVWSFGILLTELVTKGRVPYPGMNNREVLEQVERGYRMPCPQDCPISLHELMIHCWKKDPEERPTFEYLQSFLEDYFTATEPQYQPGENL

Hck = Hck (UniProt P08631); experiment: as above
Chain of Hck (P08631 whole entry, looked up): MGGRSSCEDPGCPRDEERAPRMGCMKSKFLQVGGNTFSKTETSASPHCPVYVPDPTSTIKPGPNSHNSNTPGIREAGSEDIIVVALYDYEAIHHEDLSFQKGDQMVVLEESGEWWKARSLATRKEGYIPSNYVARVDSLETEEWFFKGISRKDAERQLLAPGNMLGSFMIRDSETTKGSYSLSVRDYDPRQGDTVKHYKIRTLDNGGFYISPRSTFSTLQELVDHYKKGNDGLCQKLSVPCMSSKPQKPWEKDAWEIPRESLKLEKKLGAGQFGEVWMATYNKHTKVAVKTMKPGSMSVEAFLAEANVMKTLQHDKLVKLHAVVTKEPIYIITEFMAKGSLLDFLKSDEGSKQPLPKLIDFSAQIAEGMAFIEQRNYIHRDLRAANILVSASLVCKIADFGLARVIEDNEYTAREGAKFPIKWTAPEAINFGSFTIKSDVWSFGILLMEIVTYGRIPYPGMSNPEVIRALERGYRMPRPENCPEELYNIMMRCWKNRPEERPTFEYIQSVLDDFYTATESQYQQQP

Jak2 = Jak2 (UniProt O60674); experiment: as above
MERTK = MERTK (UniProt Q12866); experiment: as above
Chain of MERTK (Q12866 whole entry, looked up): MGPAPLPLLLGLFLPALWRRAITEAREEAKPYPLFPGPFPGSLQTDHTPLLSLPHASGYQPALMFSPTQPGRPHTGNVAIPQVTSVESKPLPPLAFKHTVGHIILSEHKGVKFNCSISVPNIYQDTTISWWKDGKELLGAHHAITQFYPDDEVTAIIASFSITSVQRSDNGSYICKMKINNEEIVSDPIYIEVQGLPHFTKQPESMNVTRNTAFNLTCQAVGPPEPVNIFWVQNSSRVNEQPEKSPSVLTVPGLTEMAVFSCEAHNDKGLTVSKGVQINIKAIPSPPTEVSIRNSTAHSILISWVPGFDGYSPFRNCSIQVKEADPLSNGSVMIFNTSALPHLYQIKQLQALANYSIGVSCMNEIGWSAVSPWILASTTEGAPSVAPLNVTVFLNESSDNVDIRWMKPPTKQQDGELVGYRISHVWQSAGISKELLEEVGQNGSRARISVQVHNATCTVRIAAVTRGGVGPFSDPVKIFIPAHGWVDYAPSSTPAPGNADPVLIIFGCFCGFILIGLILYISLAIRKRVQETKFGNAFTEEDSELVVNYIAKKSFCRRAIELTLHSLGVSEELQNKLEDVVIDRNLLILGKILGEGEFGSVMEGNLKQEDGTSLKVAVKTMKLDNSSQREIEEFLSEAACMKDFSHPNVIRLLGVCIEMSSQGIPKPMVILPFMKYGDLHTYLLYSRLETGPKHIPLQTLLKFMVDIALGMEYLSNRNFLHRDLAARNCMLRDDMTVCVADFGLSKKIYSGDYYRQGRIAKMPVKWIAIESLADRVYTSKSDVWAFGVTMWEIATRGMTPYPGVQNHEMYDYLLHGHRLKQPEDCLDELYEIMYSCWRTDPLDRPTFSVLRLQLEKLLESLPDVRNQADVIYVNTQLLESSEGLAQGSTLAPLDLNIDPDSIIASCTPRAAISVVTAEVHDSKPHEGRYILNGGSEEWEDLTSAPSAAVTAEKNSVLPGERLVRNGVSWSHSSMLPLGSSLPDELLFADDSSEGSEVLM

c-Abl (mouse) = experiment: as above
c-Src = experiment: as above
Grb2 SH2 = Grb2 SH2 (UniProt P62993); experiment: SH2 binding enrichment of the phosphorylated peptide, bacterial display (enrichment ratio); higher = better substrate or ligand; peptides without Tyr show the background
SHP2-C SH2 = experiment: as above
c-Src SH2 = experiment: as above
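Throughout, for SH2 binding enrichment of the phosphorylated peptide, bacterial display: peptide library displayed on the E. coli surface as eCPX fusions, selected cells deep-sequenced, score is each peptide's frequency after selection divided by its frequency in the input.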
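Throughout, for phosphorylation enrichment, bacterial display: 11-residue human phosphosite peptides and single-mutation variants displayed on the E. coli surface, counted by deep sequencing, each peptide's frequency after selection divided by its frequency in the unselected input library; frequency after pTyr selection over input frequency; kinase dosed for 20-30% of maximal phosphorylation in three min.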

Chain of EPHB2 (P29323 whole entry, looked up): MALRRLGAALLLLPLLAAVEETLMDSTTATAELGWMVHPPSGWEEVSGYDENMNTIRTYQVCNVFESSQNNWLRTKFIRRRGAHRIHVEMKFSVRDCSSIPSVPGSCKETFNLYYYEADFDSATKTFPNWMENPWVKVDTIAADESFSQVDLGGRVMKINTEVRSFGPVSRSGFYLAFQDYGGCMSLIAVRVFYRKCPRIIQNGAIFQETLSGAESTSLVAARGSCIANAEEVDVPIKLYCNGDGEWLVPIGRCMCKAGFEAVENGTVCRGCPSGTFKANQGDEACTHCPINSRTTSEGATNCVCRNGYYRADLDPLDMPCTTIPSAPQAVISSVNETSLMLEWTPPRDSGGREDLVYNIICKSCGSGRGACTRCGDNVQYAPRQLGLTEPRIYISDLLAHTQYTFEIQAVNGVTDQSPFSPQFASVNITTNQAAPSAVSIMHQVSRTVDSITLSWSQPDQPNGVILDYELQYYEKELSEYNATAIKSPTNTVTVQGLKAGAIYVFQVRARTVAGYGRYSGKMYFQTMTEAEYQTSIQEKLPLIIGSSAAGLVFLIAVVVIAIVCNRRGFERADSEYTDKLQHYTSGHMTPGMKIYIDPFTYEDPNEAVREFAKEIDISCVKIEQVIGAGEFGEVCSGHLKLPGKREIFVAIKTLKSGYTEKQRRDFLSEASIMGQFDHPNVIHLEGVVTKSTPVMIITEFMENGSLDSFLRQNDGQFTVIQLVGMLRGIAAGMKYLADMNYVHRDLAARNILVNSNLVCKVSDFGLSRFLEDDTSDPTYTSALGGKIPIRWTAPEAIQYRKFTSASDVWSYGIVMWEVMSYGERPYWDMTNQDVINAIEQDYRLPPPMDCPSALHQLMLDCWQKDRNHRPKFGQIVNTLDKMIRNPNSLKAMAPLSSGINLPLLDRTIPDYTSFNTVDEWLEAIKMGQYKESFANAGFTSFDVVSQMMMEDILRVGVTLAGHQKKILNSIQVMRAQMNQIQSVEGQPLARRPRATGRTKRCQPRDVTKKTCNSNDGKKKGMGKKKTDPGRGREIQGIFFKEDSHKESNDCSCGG

Row | Sequence | SH2 binding enrichment (Grb2 SH2) | SH2 binding enrichment (SHP2-C SH2) | SH2 binding enrichment (c-Src SH2) | phosphorylation enrichment (AncSZ) | phosphorylation enrichment (EPHB1) | phosphorylation enrichment (EPHB2) | phosphorylation enrichment (FGFR1) | phosphorylation enrichment (FGFR3) | phosphorylation enrichment (Fer (mouse)) | phosphorylation enrichment (Fes) | phosphorylation enrichment (Fyn) | phosphorylation enrichment (Hck) | phosphorylation enrichment (Jak2) | phosphorylation enrichment (MERTK) | phosphorylation enrichment (c-Abl (mouse)) | phosphorylation enrichment (c-Src)
1 | HTDDGYMPMSP [IRS1_Y612] | 0.771 | 0.882 | 2.53 | 1.94 | 0.787 | 0.756 | 1.45 | 0.757 | 0.824 | 1.59 | 0.839 | 0.834 | 1.37 | 0.883 | 1.04 | 0.503
2 | RSSGGYEPRGC [FUS_Y239_R244C] | 0.913 | 0.872 | 0.509 | 0.439 | 0.227 | 0.274 | 0.371 | 0.538 | 0.277 | 0.533 | 0.351 | 0.258 | 0.499 | 0.261 | 0.539 | 0.376
3 | HNVPIYEGFGL [ACTA1_Y168_A172G_YF] | 0.85 | 0.823 | 0.513 | 1.35 | 24.2 | 27.6 | 0.507 | 0.519 | 18.8 | 4.3 | 14.9 | 13.5 | 0.575 | 12.1 | 7.97 | 8.62
4 | FPPDGYSRHFE [CTNND1_Y213_YF] | 0.818 | 0.738 | 0.424 | 0.606 | 0.363 | 0.373 | 0.398 | 0.603 | 0.349 | 0.676 | 0.435 | 0.408 | 0.62 | 0.372 | 0.493 | 0.472
5 | ERTIEYLEEVA [HADHA_Y239] | 0.774 | 0.637 | 0.513 | 1.28 | 0.593 | 0.704 | 0.608 | 0.845 | 0.663 | 1.35 | 0.722 | 0.622 | 1.2 | 0.541 | 0.863 | 0.521
6 | EEVGIYRMSGV [BCR_Y1089_V1091M] | 0.744 | 0.957 | 0.431 | 0.925 | 0.55 | 0.502 | 0.556 | 0.612 | 0.535 | 0.921 | 6.38 | 5.64 | 1.12 | 0.647 | 9.58 | 6.23
7 | ESFRLYPPVPQ [CYP4B1_Y377] | 0.829 | 0.713 | 0.464 | 0.62 | 0.416 | 0.477 | 0.342 | 0.491 | 0.378 | 0.704 | 0.457 | 0.415 | 0.536 | 0.404 | 0.553 | 0.391
8 | SPPILYSFFLN [FCRL6_Y239_D244N_YF] | 1.29 | 1.28 | 0.763 | 1.08 | 3.03 | 2.36 | 1.41 | 1.38 | 5.01 | 1.17 | 2.46 | 3.03 | 1.05 | 10.5 | 2.75 | 3.41
9 | RPIEVYLCPEE [E2F3_Y349_G344R] | 0.918 | 0.809 | 0.559 | 3.41 | 1.49 | 0.998 | 1.11 | 1.3 | 0.938 | 3.24 | 1.06 | 1.04 | 3.12 | 0.975 | 1.97 | 2.55
10 | MYQVQYNSSVD [LRFN1_Y458] | 0.735 | 0.748 | 0.514 | 1.05 | 0.606 | 0.69 | 0.488 | 0.686 | 0.52 | 0.963 | 0.559 | 0.505 | 0.721 | 0.699 | 0.52 | 0.417
11 | FSLIHYAGIVD [MYH7_Y582] | 1.45 | 19 | 5.22 | 0.997 | 0.503 | 0.648 | 0.405 | 0.714 | 0.387 | 0.963 | 0.408 | 0.458 | 0.765 | 0.339 | 0.609 | 0.343
12 | PVKDPYVMFPQ [PLEKHG2_Y489] | 0.569 | 0.453 | 2.35 | 0.982 | 0.603 | 0.562 | 2.05 | 1.54 | 0.49 | 1.03 | 1.62 | 0.685 | 0.964 | 0.47 | 0.636 | 2.43
13 | MTRDIYETDFF [INSR_Y1185_YF] | 0.855 | 0.565 | 0.997 | 1.13 | 0.936 | 0.788 | 0.56 | 0.821 | 1.15 | 1.39 | 1.93 | 1.4 | 1.23 | 1.22 | 0.909 | 2.06
14 | KKIMGYSIRTI [IDS_Y490_I485K] | 1.67 | 1.2 | 1.32 | 0.625 | 0.41 | 0.405 | 0.392 | 0.332 | 0.394 | 0.571 | 0.304 | 0.387 | 0.537 | 0.366 | 0.538 | 0.364
15 | GLPINYTTRRI [LAMA2_Y2894] | 0.62 | 0.58 | 0.325 | 0.499 | 0.323 | 0.441 | 0.565 | 0.415 | 0.557 | 0.534 | 0.549 | 0.569 | 0.468 | 0.599 | 0.404 | 0.611
16 | GENTMYAQVFN [LY9_Y603] | 0.751 | 10.1 | 1.84 | 0.912 | 1.47 | 0.787 | 0.56 | 0.561 | 5.6 | 0.968 | 2.5 | 3.32 | 0.803 | 2.18 | 0.958 | 2.38
17 | KLNNEHLELNY [MME_Y497_Y497H] | 0.934 | 0.734 | 0.573 | 0.775 | 0.402 | 0.452 | 0.437 | 0.517 | 0.445 | 0.768 | 0.471 | 0.421 | 0.619 | 0.395 | 0.58 | 0.417
18 | HEKFLYFLPAS [DYNC2H1_Y346] | 0.925 | 0.868 | 0.676 | 2.17 | 1.72 | 1.3 | 1.08 | 1.82 | 0.931 | 1.8 | 1.87 | 2.12 | 2.82 | 3.9 | 1.4 | 1.08
19 | NKVKFYIPDMN [NCR1_Y84] | 0.954 | 0.849 | 0.854 | 0.743 | 0.496 | 0.476 | 0.432 | 0.66 | 0.448 | 0.865 | 0.396 | 0.432 | 0.8 | 0.388 | 0.602 | 0.567
20 | KAIMIYVSSFF [ACTN4_Y260_T259I_YF] | 0.948 | 0.967 | 0.567 | 0.945 | 0.457 | 0.606 | 0.446 | 0.666 | 0.444 | 1.06 | 0.422 | 0.429 | 0.925 | 0.457 | 0.684 | 0.534

More lines, main results first:

Row | SH2 binding enrichment (Grb2 SH2) | SH2 binding enrichment (SHP2-C SH2) | SH2 binding enrichment (c-Src SH2) | Sequence | phosphorylation enrichment (AncSZ) | phosphorylation enrichment (EPHB1) | phosphorylation enrichment (EPHB2) | phosphorylation enrichment (FGFR1) | phosphorylation enrichment (FGFR3) | phosphorylation enrichment (Fer (mouse)) | phosphorylation enrichment (Fes) | phosphorylation enrichment (Fyn) | phosphorylation enrichment (Hck) | phosphorylation enrichment (Jak2) | phosphorylation enrichment (MERTK) | phosphorylation enrichment (c-Abl (mouse)) | phosphorylation enrichment (c-Src)
21 | 0.727 | 0.504 | 0.84 | ETELPYQELQG [TYROBP_Y91_S89L] | 1.58 | 0.535 | 0.58 | 1.65 | 1.5 | 0.997 | 1.18 | 0.737 | 0.941 | 1.02 | 0.566 | 0.872 | 2.5
22 | 2.22 | 1.68 | 1.87 | CTTIQYNFMCN [TP53_Y234_H233Q_YF] | 0.969 | 0.499 | 0.49 | 0.586 | 0.689 | 0.485 | 1.01 | 0.494 | 0.611 | 0.853 | 0.438 | 0.593 | 0.5
23 | 1.01 | 0.725 | 2.42 | HLMLQYDAVVN [SLC25A32_Y152_R147H] | 1.75 | 0.93 | 1.51 | 1.19 | 1.35 | 1.81 | 2.01 | 1.15 | 1.39 | 1.51 | 1.27 | 1.08 | 0.885
24 | 1.17 | 0.58 | 0.567 | TVHCDYLNISH [TAF1L_Y1385_P1389S] | 1.1 | 1.55 | 0.634 | 2.38 | 1.69 | 0.546 | 1.04 | 0.451 | 0.562 | 1.29 | 0.373 | 0.663 | 0.588
25 | 2.21 | 1.03 | 1.38 | ELTAKYLNYYQ [P3H4_Y181] | 0.781 | 0.705 | 0.642 | 0.683 | 0.71 | 0.445 | 0.802 | 0.407 | 0.493 | 0.715 | 0.977 | 0.564 | 0.492
26 | 1.11 | 0.883 | 0.943 | TWNPKYTLRSH [STRN3_Y474] | 0.614 | 0.399 | 0.468 | 0.433 | 0.54 | 0.378 | 0.74 | 0.426 | 0.492 | 0.524 | 0.409 | 0.473 | 0.348
27 | 1.55 | 1.86 | 1.89 | PRIHSYRGHLW [VHL_Y112_R107P] | 1.01 | 1.56 | 0.451 | 0.771 | 0.579 | 0.722 | 1.08 | 0.611 | 0.713 | 0.628 | 0.655 | 1.09 | 0.748
28 | 0.904 | 0.881 | 0.501 | DEDYLYREELA [POR_Y575] | 1.61 | 0.71 | 0.647 | 0.814 | 1.18 | 0.61 | 1.36 | 0.579 | 0.642 | 1.25 | 0.502 | 0.903 | 0.535
29 | 0.757 | 0.706 | 4.13 | PPPPAYDDVAQ [TNK2_Y635] | 1.16 | 0.579 | 0.669 | 0.467 | 0.591 | 0.547 | 0.993 | 0.45 | 0.439 | 1.03 | 0.676 | 0.806 | 0.622
30 | 1.05 | 0.637 | 0.583 | DSFWSYCNAVA [SLC20A2_Y436_S434W_YF] | 1.45 | 0.76 | 0.67 | 0.65 | 0.805 | 0.57 | 1.31 | 0.527 | 0.569 | 1.19 | 0.421 | 0.745 | 0.443
31 | 0.948 | 0.906 | 0.645 | KVASVYEAPGF [NT5C_Y65] | 0.973 | 3.77 | 5.62 | 0.481 | 0.583 | 6.87 | 0.903 | 7.05 | 9.28 | 0.609 | 2.59 | 9.41 | 5.05
32 | 1.09 | 0.763 | 0.51 | LSPNMYNSKLW [TARSL2_Y457] | 0.879 | 0.632 | 0.753 | 0.75 | 1.13 | 0.5 | 1.19 | 0.622 | 0.831 | 0.561 | 0.603 | 0.726 | 0.573
33 | 0.74 | 0.581 | 0.388 | DYYDLYGGKKF [PTPN11_Y66_E69K] | 1.31 | 1.89 | 1.22 | 11.5 | 9.68 | 0.421 | 0.825 | 3.27 | 5.9 | 0.971 | 1.21 | 0.698 | 3.05
